Test results published in US20050037969A1.

Molecular target: GST-DLG1 fusion protein (PDZ domains 1-2) (human) (UniProt Q12959)
Test: variant of the G assay, 100 uM 8-mer against 20 uM biotin-labeled AA2L

percent inhibition at 100 uM: > 50%
Substance: eight amino acid CLASP-2 peptide MTSSSSVV (unlabeled)
